Source: article doi:10.1101/2025.10.27.684718

Target: hsKir6.2 (Q52E) subunit of the cryo-EM KATP construct (human) (UniProt Q14654)
Experiment: cryo-EM structure

stoichiometry N: 4
Substance: hsKir6.2 (Q52E) subunit of the cryo-EM KATP construct (from UniProt Q14654 2-390) (natural protein)
